# Data taken from patent US12692524B2, “Sialyltransferases and their use in producing sialylated oligosaccharides” (Chr. Hansen A/S, priority 2017, dated 2026).
# B1: SiaT10: sialyltransferase of Pasteurella multocida PM70, acc. AAK02272, SEQ ID NO: 4 (protein, listed as Pasteurella multocida)
# chain: MKTITLYLDPASLPALNQLMDFTQNNEDKTHPRIFGLSRFKIPDNIITQYQNIHFVELKDNRPTEALFTILDQYPGNIELDIHLNIAHSVQLIRPILAYRFKHLDRVSIQRLNLYDDGSMEYVDLEKEENKDISAEIKQAEKQLSHYLLTGKIKFDNPTIARYVWQSAFPVKYHFLSTDYFEKAEFLQPLKEYLAENYQKMDWTAYQQLTPEQQAFYLTLVGFNDEVKQSLEVQQAKFIFTGTTTWEGNTDVREYYAQQQLNLLNHFTQAGGDLFIGDHYKIYFKGHPRGGEINDYILNNAKNITNIPANISFEVLMMTGLLPDKVGGVASSLYFSLPKEKISHIIFTSNKQVKSKEDALNNPYVKVMRRLGIIDESQVIFWDSLKQL
# B2: SiaT15: sialyltransferase of Haemophilus ducreyi 35000HP, acc. AF101047, SEQ ID NO: 14 (protein, listed as Haemophilus ducreyi)
# chain: MKEIAIISNQRMFFLYCLLTNKNVEDVFFIFEKGAMPNNLTSISHFIVLDHSKSECYDFFYFNFISCKYRLRGLDVYGADHIKGAKFFLERHRFFVVEDGMMNYSKNMYAFSLFRTRNPVILPGGFHPNVKTIFLTKDNPIPDQIAHKREIINIKTLWQAKTATEKTKILSFFEIDMQEISVIKNRSFVLYTQPLSEDKLLTEAEKIDIYRTILTKYNHSQTVIKPHPRDKTDYKQLFPDAYVMKGTYPSELLTLLGVNFNKVITLFSTAVFDYPKEKIDFYGTAVHPKLLDFFD
# B3: SiaT13: sialyltransferase of Streptococcus agalactiae, acc. AB050723, SEQ ID NO: 17 (protein, listed as Streptococcus agalactiae)
# chain: MTNRKIYVCHTLYHLLICLYKEEIYSNLEIILSSSIPDVDNLEKKLKSKTINIHILEESSGESEELLSVLKDAGLSYSKFDSNCFIFNDATPIGRTLIKHGIYYNLIEDGLNCFTYSIFSQKLWKYYVKKYILHKIQPHGFSRYCLGIEVNSLVNLPKDPRYKKFIEVPRKELFDNVTEYQKEMAINLFGAVRVSIKSPSVLVLTQPLSIDKEFMSYNNKIETSEEQFNFYKSIVNEYINKGYNVYLKVHPRDVVDYSKLPVELLPSNVPMEIIELMLTGRFECGITHSSTALDFLTCVDKKITLVDLKDIK
# B4: SiaT14: sialyltransferase of Haemophilus-somnus-2336, acc. ACA31578, SEQ ID NO: 26 (protein, listed as Haemophilus somnus)
# chain: MFREDNMNLIICCTPLQVIIAEKIIERYPEQKFYGVMLESFYNDKFDFYENKLKHLCHEFFCIKIARFKLERYKNLLSLLKIKNKTFDRVFLANIEKRYIHIILSNIFFKELYTFDDGTANIAPNSHLYQEYDHSLKKRITDILLPNHYNSNKVKNISKLHYSIYRCKNNIIDNIEYMPLFNLEKKYTAQDKSISILLGQPIFYDEEKNIRLIKEVIAKFKIDYYFPHPREDYYIDNVSYIKTPLIFEEFYAERSIENSIKIYTFFSSAVLNIVTKENIDRIYALKPKLTEKAYLDCYDILKDFGIKVIDI
# Assays:
# [1] = In vivo screening in E. coli #1363/#1730 with lactose as acceptor, sialyllactose identified by TLC; format: cell-based, Escherichia coli BL21(DE3); conditions: 1.5 mM lactose, 72 to 96 hours, qualitative via TLC
# Description: Escherichia coli BL21(DE3) #1363 and #1730 harbouring plasmids encoding for 100 sialyltransferases were grown at 30° C. in 100 ml shake flasks filled with 20 ml of mineral salts medium (Samain et al., J. Biotech. 1999, 72:33-47) supplemented with 2% (wt/vol) glucose, ampicillin 100 μg ml^−1, kanamycin 15 μg ml^−1 and zeocin 40 μg ml^−1. When the cultures reached an OD600 of 0.1 to 0.3, gene expression was induced by addition of 0.3 mM IPTG. After an incubation for one hour, 1.5 mM lactose was added to #1363 cultures whereas 1.5 mM lactose as well as 1.5 mM sialic acid was added to #1730 cultures. The incubation continued for 72 to 96 hours. Then, cells were harvested by centrifugation and mechanically disrupted in a defined volume using glass beads. Subsequently, samples were applied to thin layer chromatography (TLC) on Silica Gel 60 F254 (Merck KGaA, Darmstadt, Germany). A mixture of butanol:acetone:acetic acid:H2O (35/35/7/23 (v/v/v/v)) was used as mobile phase. For detection of the separated substances, the TLC plate was soaked with thymol reagent (0.5 g thymol solved in 95 ml ethanol, 5 ml sulfuric acid added) and heated.
# In the entire screening, thirty two genes were identified to encode for α-2,3-sialyltransferases, thus producing 3′-SL. 19 enzymes synthesized 6′-SL and were depicted as α-2,6-sialyltransferases. An α-2,3- as well as an α-2,6-sialyltransferase activity could only be observed for 3 enzymes. […] The screening appeared highly accurate since the described activities of extensively characterized sialyltransferases, e. g. […] Regarding the product formation, the experimental setting allowed a semi-quantitative comparison of the screened enzymes. But to achieve deeper knowledge about their kinetic properties, the 3 potentially best performing α-2,3- and α-2,6-sialyltransferases were applied to in vitro assays.
# [2] = In vitro sialylation of LNT by protein extracts, LST-a/-b quantified by LC-MS/MS; format: biochemical; conditions: 5 mM LNT, 10 mM CMP-Neu5Ac, 16 hours, LC-MS/MS; relative quantity; n.d.: not detectable
# Description: Escherichia coli BL21(DE3) harbouring plamids encoding for 100 sialyltransferases were grown at 30° C. in 100 ml shake flasks filled with 20 ml of 2YT medium supplemented with ampicillin 100 μg ml^−1. When the cultures reached an OD600 of 0.1 to 0.3, gene expression was induced by addition of 0.3 mM IPTG and the incubation was continued for 12 to 16 hours. Cells were harvested by centrifugation and mechanically disrupted in a defined volume of 50 mM Tris-HCl pH7.5 using glass beads. The protein extract was kept on ice until the assay started. The in vitro assay was carried out in a total volume of 25 μl including 50 mM Tris-HCl pH7.5, 5 mM MgCl2, 10 mM CMP-Neu5Ac and 5 mM LNT. The assay started with the addition of 3 μl protein extract and continued for 16 hours. Product formation was determined by mass spectrometry.
# Mass spectrometry analysis was performed by MRM (multiple reaction monitoring) using a LC Triple-Quadrupole MS detection system. Precursor ions are selected and analyzed in quadrupole 1, fragmentation takes place in the collision cell using argon as CID gas, selection of fragment ions is performed in quadrupole 3. Chromatographic separation of lactose, 3′-Sialyllactose and 6′-Sialyllactose after dilution of culture supernatant 1:100 with H2O (LC/MS Grade), was performed on a XBridge Amide HPLC column (3.5 μm, 2.1×50 mm (Waters, USA) with a XBridge Amide guard cartridge (3.5 μm, 2.1×10 mm) (Waters, USA). Column oven temperature of the HPLC system was 50° C. The mobile phase was composed of acetonitrile:H2O with 10 mM ammonium acetate. A 1 μl sample was injected into the instrument; the run was performed for 3.60 min with a flow rate of 400 μl/min. 3′-Sialyllactose and 6′-Sialyllactose were analyzed by MRM in ESI positive ionization mode. The mass spectrometer was operated at unit resolution. Sialyllactose forms an ion of m/z 656.2 [M+Na]. The precursor ion of Sialyllactose was further fragmented in the collision cell into the fragment ions m/z 612.15, m/z 365.15 and m/z 314.15. Collision energy, Q1 and Q3 Pre Bias were optimized for each analyte individually. Chromatographic separation of lactose, LNT-II, LNT and LST-a or -b after dilution of particle-free biocatalysis-reaction or crude extract, respectively, 1:50 with H2O (LC/MS Grade), was performed on a XBridge Amide HPLC column (3.5 μm, 2.1×50 mm (Waters, USA) with a XBridge Amide guard cartridge (3.5 μm, 2.1×10 mm) (Waters, USA). Column oven was run at 35° C. The mobile phase was composed of acetonitrile:H2O with 0.1% ammonium hydroxide. A 1 μl sample was injected into the instrument; the run was performed for 3.50 min with a flow rate of 300 μl/min. Lactose, LNT-II, LNT as well as LST-a and -b were analyzed by MRM in ESI negative ionization mode. The mass spectrometer was operated at unit resolution. Lactose forms an ion of m/z 341.00 [M−H]. The precursor ion of Lactose was further fragmented in the collision cell into the fragment ions m/z 179.15, m/z 161.15 and m/z 101.05. LNT-II forms an ion of m/z 544.20 [M−H]. The precursor ion of LNT-II was further fragmented into the fragment ions m/z 382.10, m/z 161.00 and m/z 112.90. LNT forms an ion of m/z 706.20 [M−H]. The precursor ion of LNT was further fragmented into the fragment ions m/z 382.10, m/z 202.10 and m/z 142.00. LST-a and -b forms an ion of m/z 997.20 [M−H]. The precursor ion of LST-a and-b was further fragmented into the fragment ions m/z 290.15, m/z 202.15 and m/z 142.15. Collision energy, Q1 and Q3 Pre Bias were optimized for each analyte individually. Quantification methods were established using commercially available standards (Carbosynth, Compton, UK).
# Twenty eight genes were identified to produce LST-a whereas only 6 enzymes synthesized LST-b. […] Irrespectively of the protein overexpression level, sialyltransferases that produced best were selected for determination of Km and Vmax.
Molecule,Production of sialyllactose in-vivo [1],Relative efficacy of sialyltransferases regarding in-vitro production of sialyllacto-N-tetraoses: LST-a [2]
B1,"3′-SL, 6′-SL",3.18 × 10^3
B2,3′-SL,204
B3,3′-SL,24
B4,3′-SL,2
